Experimental data reported in US20190374607A1.

Target: chemokine (C-X-C) motif receptor (CXCR) 4 (UniProt P61073)
Test: cell-based or functional assay

Sequence of chemokine (C-X-C) motif receptor (CXCR) 4 (P61073 whole entry): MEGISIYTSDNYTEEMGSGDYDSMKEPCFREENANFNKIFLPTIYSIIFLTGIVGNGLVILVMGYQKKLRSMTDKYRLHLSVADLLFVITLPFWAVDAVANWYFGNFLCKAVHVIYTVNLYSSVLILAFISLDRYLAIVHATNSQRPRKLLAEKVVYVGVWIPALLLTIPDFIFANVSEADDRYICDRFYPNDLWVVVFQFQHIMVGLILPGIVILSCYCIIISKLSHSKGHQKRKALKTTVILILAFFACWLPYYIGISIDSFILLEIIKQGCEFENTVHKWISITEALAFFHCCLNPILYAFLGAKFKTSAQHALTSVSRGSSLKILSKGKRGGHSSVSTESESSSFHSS

EC50, inhibition of thrombin-mediated hyper-permeability of hPPAEC (t=255 min)	concentration at which thrombin-mediated hPPAEC barrier impairment was affected (t=255 min)	Substance
0.05 to 0.5 nM		CXCL12 K27A/R41A/R47A (from UniProt P48061 22-89) (ligand)
0.5 to 50 nM		CXCL12 R47E (from UniProt P48061 22-89) (ligand)
0.05 to 0.5 nM		CXCL12β (from UniProt P48061 22-93) (ligand)
	50 nM	Locked dimer CXCL122 (constitutively dimeric CXCL12 variant, L36C/A65C) (from UniProt O62657 22-89) (ligand)
